Measured values: publication PMC3229523, “Identification of Lactoferricin B Intracellular Targets Using an Escherichia coli Proteome Chip” (PLoS ONE, 2011)
Ends that are not written are not given here. * marks the point of attachment. Biotin = O=C1N[C@H]2[C@H](CS[C@H]2CCCCC(=O)*)N1

Experiments:
Assay in all cases: peptide or protein array; E. coli proteome chip: purified His-tagged proteins printed in duplicate on Fullmoon slides, blocked with 1% BSA; 10 nM N-terminal biotinylated LfcinB with 1% BSA, room temperature, 1 h; detected with DyLight 649-labeled streptavidin, ratio to DyLight 549-labeled anti-His antibody; ProCAT normalisation, local cut-off; triplicate chips
Conditions in all cases: both partners purified
YbbN = target: T1, YbbN (E. coli K-12, UniProt P77395 1-284)
T1 construct: YbbN, E. coli K-12
T1 sequence (looked up): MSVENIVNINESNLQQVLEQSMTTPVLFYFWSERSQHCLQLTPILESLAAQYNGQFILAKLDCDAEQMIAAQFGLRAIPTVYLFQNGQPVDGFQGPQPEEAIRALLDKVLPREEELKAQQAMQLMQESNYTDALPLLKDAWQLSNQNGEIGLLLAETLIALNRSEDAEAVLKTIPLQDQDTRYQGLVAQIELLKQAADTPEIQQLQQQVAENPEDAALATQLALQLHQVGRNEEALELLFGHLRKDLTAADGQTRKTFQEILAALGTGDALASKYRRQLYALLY

AceK = target: T2, AceK (E. coli K-12, UniProt P11071 1-578)
T2 construct: AceK, E. coli K-12
T2 sequence (looked up): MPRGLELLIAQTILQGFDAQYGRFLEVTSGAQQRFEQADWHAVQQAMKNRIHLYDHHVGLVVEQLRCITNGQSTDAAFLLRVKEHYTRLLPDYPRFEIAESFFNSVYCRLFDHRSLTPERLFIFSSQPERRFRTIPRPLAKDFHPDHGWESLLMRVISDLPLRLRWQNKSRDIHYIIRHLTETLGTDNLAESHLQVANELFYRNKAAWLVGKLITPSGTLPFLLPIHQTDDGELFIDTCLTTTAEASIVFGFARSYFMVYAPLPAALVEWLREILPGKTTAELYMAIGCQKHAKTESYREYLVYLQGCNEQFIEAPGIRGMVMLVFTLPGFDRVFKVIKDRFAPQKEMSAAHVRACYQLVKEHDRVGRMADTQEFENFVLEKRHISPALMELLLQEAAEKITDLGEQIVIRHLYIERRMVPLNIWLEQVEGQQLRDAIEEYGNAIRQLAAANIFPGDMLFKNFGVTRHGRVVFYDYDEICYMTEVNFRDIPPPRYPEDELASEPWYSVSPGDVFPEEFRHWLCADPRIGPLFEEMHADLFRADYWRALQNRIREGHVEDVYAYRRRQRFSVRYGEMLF

HolC = target: T3, HolC (E. coli K-12, UniProt P28905 1-147)
T3 construct: HolC, E. coli K-12

GidB = target: T4, GidB (E. coli K-12, UniProt P0A6U5 1-207)
T4 construct: GidB, E. coli K-12
T4 sequence (looked up): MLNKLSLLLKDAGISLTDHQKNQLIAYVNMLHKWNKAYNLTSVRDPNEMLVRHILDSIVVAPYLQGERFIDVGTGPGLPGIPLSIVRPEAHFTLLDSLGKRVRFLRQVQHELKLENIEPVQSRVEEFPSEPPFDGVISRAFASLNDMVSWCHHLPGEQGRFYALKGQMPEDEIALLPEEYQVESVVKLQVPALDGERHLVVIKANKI

YjhI = target: T5, YjhI (E. coli K-12, UniProt P39360 1-262)
T5 construct: YjhI, E. coli K-12
T5 sequence (looked up): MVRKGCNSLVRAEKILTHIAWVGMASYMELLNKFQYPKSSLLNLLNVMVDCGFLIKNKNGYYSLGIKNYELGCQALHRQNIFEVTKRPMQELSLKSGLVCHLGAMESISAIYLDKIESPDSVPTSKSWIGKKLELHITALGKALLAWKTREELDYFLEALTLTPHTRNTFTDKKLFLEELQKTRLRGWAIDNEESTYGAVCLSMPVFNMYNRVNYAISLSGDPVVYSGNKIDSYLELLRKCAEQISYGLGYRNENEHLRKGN

RffH = target: T6, RffH (E. coli K-12, UniProt P61887 1-293)
T6 construct: RffH, E. coli K-12

Measured: binding result

T3 sequence (P28905 whole entry): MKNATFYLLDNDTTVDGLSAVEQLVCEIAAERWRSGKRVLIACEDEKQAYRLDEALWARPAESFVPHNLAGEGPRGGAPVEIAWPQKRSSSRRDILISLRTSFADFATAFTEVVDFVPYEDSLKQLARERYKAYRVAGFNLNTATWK
T6 sequence (P61887 whole entry): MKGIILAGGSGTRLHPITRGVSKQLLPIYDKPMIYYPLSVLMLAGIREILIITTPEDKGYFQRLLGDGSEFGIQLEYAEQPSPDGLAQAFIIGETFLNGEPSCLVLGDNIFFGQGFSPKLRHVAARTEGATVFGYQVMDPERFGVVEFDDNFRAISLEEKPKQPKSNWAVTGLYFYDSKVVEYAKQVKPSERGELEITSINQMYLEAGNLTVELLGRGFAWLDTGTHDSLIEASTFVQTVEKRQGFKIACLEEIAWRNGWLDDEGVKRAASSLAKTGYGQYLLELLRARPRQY

B1: N-terminal biotinylated Lactoferricin B (peptide, UniProt P24627 36-60, looked up)
peptide: Biotin-FKCRRWQWRMKKLGAPSITCVRRAF
modifications: ends and bridges not checked
notes: lactoferricin B (LfcinB), cationic antimicrobial peptide of 25 amino acids; also called biotinylated LfcinB; biotin-labeled LfcinB; source: bought: Kelowna Inc
binds: all assays above
